Series [1] concerns the target T1, EtgA residues 18–152 with C-terminal 6xHis-tag (enteropathogenic Escherichia coli).
T1 chain: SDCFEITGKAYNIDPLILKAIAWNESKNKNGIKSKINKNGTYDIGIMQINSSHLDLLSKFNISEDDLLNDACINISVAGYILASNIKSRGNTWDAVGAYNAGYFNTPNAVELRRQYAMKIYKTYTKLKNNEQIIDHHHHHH
In words: MST.

Series [2] has as its target T1, EtgA residues 18–152 with C-terminal …. Kind of series: differential scanning fluorimetry. Background: Differential scanning fluorimetry follows unfolding on heating by fluorescence.

B1: EscI peptide comprising EscI residues 66–87 (peptide)
peptide: TAGVSSPEQVLIEEIKKRHLAT
As for B1, in series [1], the Kd amounted to 385 ± 35 µM. In addition, the “increase in Tm of EtgA (250 and 500 μM peptide)” value in series [2] worked out at 2 °C.

A word on the Kd: it is the concentration at which binding is half-saturated. Read a high Kd as weaker binding.
